Data reported in patent US20240083958A1, “G PROTEIN PEPTIDOMIMETICS” (VRIJE UNIVERSITEIT BRUSSEL, priority 2020, published 2024).
Bridge positions count the residues as written; N and C are the ends. Square brackets hold non-standard residues; d marks the D form. Primed or numbered codes have the meaning given here. Peptide text beside a SMILES is read from it. Azk = residue with azidated side chain, clicked to Pra; Pra′ = residue with alkynyl side chain, clicked to Azk; Lys(N3) = [N-]=[N+]=NCCCC[C@H](N)C(=O)O; 1Nal = N[C@@H](Cc1cccc2ccccc12)C(=O)O; 2Nal = N[C@@H](Cc1ccc2ccccc2c1)C(=O)O; Aad = N[C@@H](CCCC(=O)O)C(=O)O; Cha = N[C@@H](CC1CCCCC1)C(=O)O; Pra = C#CC[C@H](N)C(=O)O

Tests used:
human β2AR [1] = biological target: T1, human β2AR (Homo sapiens, UniProt P07550, N187E); assay: Radioligand binding assay (RLA) with human β2AR, 3H-dihydroalprenolol (DHA) as radioligand, isoproterenol (agonist) as cold competitor, in presence and absence of the peptidomimetic; set-up: key to Shift: ratio IC50 basal (no peptide) / IC50 with peptidomimetic
T1 construct: made in house; host or cells: Sf9 insect cells (Bac-to-Bac baculovirus); membrane extracts
Experimental: β2AR365N constructs were expressed in Sf9 insect cells, using the Bac-to-Bac® Baculovirus Expression System. The membrane extracts were prepared from cells that expressed β2AR. Subsequently, the cell pellet was resuspended in a buffer (1 ml buffer/2×1E7 cells) containing 75 mM Tris pH 7.4, 12.5 mM MgCl2, 1 mM EDTA, Leupeptin and PMSF as protease inhibitors. Afterwards the cells were vortexed and homogenized in ice using a small volume Ultraturrax (6×10 sec). The cells were then centrifuged for 15 min at 16000 rcf, in a pre-cooled centrifuge (4° C.) and resuspended in the previous buffer containing 10% sucrose. Finally, the membranes were again homogenized in ice with the small volume Ultraturrax (3×10 sec). The protein concentration in the membrane fragments was determined using a Pierce BCA Protein Assay Kit and the protein concentration was extrapolated from the Bovine Serum Albumine standard curve.
To perform the radioligand competition binding assays, 96-well plates were used. For the assays on β2AR, the membrane extracts as well as the peptides were prepared in a binding buffer (75 mM Tris pH 7.4, 12.5 mM MgCl2, 1 mM EDTA, 0.2% BSA). The ligand (isoproterenol) and radioligand ([^3H]-dihydroalprenolol) were dissolved in ligand buffer (75 mM Tris pH 7.4, 12.5 mM MgCl2, 1 mM EDTA, 0.2% BSA and 0.1% ascorbic acid), at 1 mM and 2 nM, respectively. A ten-fold dilution series of the ligand was prepared to obtain a dose response curve. For each reaction 100 μl membrane extract, 50 μl ligand, 50 μl peptide or binding buffer containing 1% DMSO and 50 μl of radioligand was added to the V-bottom storage plate, with a total volume of 250 μl per well. Afterwards, the plates were incubated at room temperature for 2 h on a plate shaker (150 rpm). The samples were harvested into filter plates and washed with ice cold washing buffer (75 mM Tris pH 7,4) using the 96-well harvester. The plates were dried for 1 h at 50° C. and then sealed to allow the addition of 30 μl scintillation liquid to each well. Finally, the top of each plate was sealed and the plates were placed in a Wallac MICROBETA® Trilux scintillation counter and incubated for 30 min in the dark.
After the Microbeta scintillation counter, the experimental data was further analyzed using Graphpad Prism 6.0. After normalization of the raw data, a nonlinear regression was used to fit the data in a one-site binding model, with the total binding set as 100% and the non-specific binding between 0 and 5%. The IC50 values, obtained from the competition curves, were used to determine the shift for each peptide, which is the ratio of IC50 of the agonist test compound on the basal conformation (e.g. IC50 β2AR with no peptidomimetic) versus the active conformation (e.g. IC50 β2AR+peptidomimetic) of the receptor. For certain peptide analogues, a biphasic binding curve was observed and therefore fitted by a two-site model (nonlinear regression), resulting in two IC50 values (IC50Hi and IC50Lo) and a FractionHi, the fraction of receptors in the active state.
Synthesised peptidomimetics were evaluated using a radioligand binding assay (RLA) with a human β2AR, using ^3H-dihydroalprenolol (DHA) as the radioligand and increasing concentrations of isoproterenol (agonist) as cold competitor. In particular, the pharmacological stabilization of the receptor in the active conformation was evaluated by performing the radioligand displacement assay (RLA) in the presence and absence of the peptidomimetics. This validated assay quantifies the pharmacological stabilization of the receptor in the active conformation by comparing the affinities of an agonist for the basal versus the active GPCR conformer (Pardon et al. (2018) Angewandte Chemie International Edition 57, 5292-5295). During the assay, the binding affinity of an orthosteric agonist for the receptor, in particular isoproterenol for human β2AR, in presence and absence of the allosteric peptidomimetic was determined. […]

human β2AR [2] = biological target: human β2AR (human, UniProt P07550 2-365); assay: cell-based or functional assay
[3] = Table 18b overview, averaged values of IC50 shift
[4] = Table 18a overview, averaged values of IC50 shift

| Molecule | Shift (averaged) (human β2AR [2]) | other results |
| --- | --- | --- |
| RDIIQRMHLRQYELL [compound 16, Ac-RDIIQRMHLRQYELL-OH] |  | Shift (human β2AR [1]; Table 1, ratio IC50 β2AR alone / IC50 β2AR + peptidomimetic): 1; Shift (human β2AR [1]; [3]): 1 |
| CCC(C)[C@@H]1NC(=O)[C@@H](NC(=O)[C@H](CC(=O)O)NC(=O)[C@H](CCCNC(=N)N)NC(=O)[C@H](CS)NC(=O)[C@H](CC(=O)O)NC(=O)[C@H](CC(N)=O)NC(=O)[C@H](Cc2ccccc2)NC(C)=O)CCC(=O)NCCCC[C@@H](C(=O)N[C@@H](Cc2c[nH]cn2)C(=O)N[C@@H](CC(C)C)C(=O)N[C@@H](CCCNC(=N)N)C(=O)N[C@@H](CCC(N)=O)C(=O)N[C@@H](Cc2ccc(O)cc2)C(=O)N[C@@H](CCC(=O)O)C(=O)N[C@@H](CC(C)C)C(=O)N[C@@H](CC(C)C)C(=O)O)NC(=O)[C@H](CCCNC(=N)N)NC(=O)[C@H](CCC(N)=O)NC1=O (some centres unmarked) [compound 5, Ac-FNDCRD[EIQRK]HLRQYELL-OH] (HELM PEPTIDE1{[ac].F.N.D.C.R.D.E.[CCC(C)[C@H](N[*:1])C(=O)[*:2]].Q.R.K.H.L.R.Q.Y.E.L.L}$PEPTIDE1,PEPTIDE1,8:R3-12:R3$$$V2.0) |  | Shift (human β2AR [1]; Table 3, ratio IC50 β2AR alone / IC50 β2AR + peptidomimetic): 4; Shift (human β2AR [1]; [4]): 4 |
| Ac-FN[S5CRDS5]IQRMHLRQYELL-OH [compound 26] |  | Shift (human β2AR [1]; Table 6, ratio IC50 β2AR alone / IC50 β2AR + peptidomimetic): 2; Shift (human β2AR [1]; [4]): 2 |
| Ac-FN[PraCRDAzk]IQRMHLRQYELL-OH (Ac-FN[Pra′]CRD[Azk]IQRMHLRQYELL-OH; triazole 3-7) [compound 12] |  | Shift (human β2AR [1]; Table 8, ratio IC50 β2AR alone / IC50 β2AR + modulator): 37 |
| Ac-RDIIQR[AzkHLRPra]YELL-OH (Ac-RDIIQR[Azk]HLR[Pra′]YELL-OH; triazole 7-11) [compound 19] |  | Shift (human β2AR [1]; [3]): 5 |
| Ac-FN[Azk]CRD[Pra′]IQRMHLRQYELL-OH (triazole 3-7) [compound 35] | 5 |  |
| Ac-KKKFN[Pra′]CRD[Azk]IQRMHLRQ[2Nal]ELL-OH (triazole 6-10) [compound 58] | 39 |  |
| Ac-FN[Pra′]CRD[Azk]IQRMHLRQYDLL-OH (triazole 3-7) [compound 39] | 52 |  |
| Ac-FNDCRDIIQRMHLRQYEYL-OH [compound 70] | 2 |  |
| Ac-KKKRDIIQR[Lys(N3)]HLR[Pra′]YE[Cha]L-OH (triazole 10-14) [compound 65] | 63 |  |
| Ac-KFN[Pra′]CRD[Azk]IQRMHLRQYDLL-OH (triazole 4-8) [compound 54] | 91 |  |
| Ac-FNDCRDIIQRMHLRQYEHL-OH [compound 71] | 1 |  |
| Ac-FN[Pra′]CRD[Azk]IQRMHLRQYELL-NH2 (triazole 3-7) [compound 36] | 1 |  |
| Ac-KFN[Pra′]CRD[Azk]IQRMHLRQY[Aad]LL-OH (triazole 4-8) [compound 52] | 53 |  |
| Ac-KFN[Pra′]CRD[Azk]IQRMHLRQYELI-OH (triazole 4-8) [compound 46] | 51 |  |
| Ac-RDIIQR[Lys(N3)]HLR[Pra′]YE[Cha]L-OH (triazole 7-11) [compound 64] | 81 |  |
| Ac-KKKFN[Pra]CRD[Lys(N3)]IQRMHLRQ[1Nal]ELL-OH (triazole 6-10) [compound 57] | 49 |  |
| Ac-KFN[Pra′]CRD[Azk]IQRMHLRQYEIL-OH (triazole 4-8) [compound 48] | 8 |  |

| Molecule | Shift (averaged) (human β2AR [2]) | other results |
| --- | --- | --- |
| Ac-FN[Pra′]CRD[Azk]IQRMHLRQYEIL-OH (triazole 3-7) [compound 32] | 2 |  |
| Ac-FN[Pra′]CRD[Azk]IQRMHLRQYQLL-OH (triazole 3-7) [compound 28] | 12 |  |
| Ac-KKKFN[Pra′]CRD[Azk]IQRMHLRQWELL-OH (triazole 6-10) [compound 56] | 53 |  |
| Ac-KKKFN[Pra′]CRD[Azk]IQRMHLRQYELI-OH (triazole 6-10) [compound 47] | 64 |  |
| Ac-KKKFN[Pra′]CRD[Azk]IQRMHLRQYDLL-OH (triazole 6-10) [compound 55] | 72 |  |
| Ac-NARRIFNDARDIIQRMHLRQYELL-OH [compound 81] | 8 |  |
| Ac-NARRIFNDARDIIQRMHLRQYEWL-OH [compound 83] | 9 |  |
| Ac-FN[Pra′]CRD[Azk]IQRMHLRQYELI-OH (triazole 3-7) [compound 34] | 29 |  |
| Ac-FN[Pra′]CRN[Azk]IQRMHLRQYELL-OH (triazole 3-7) [compound 38] | 7 |  |
| Ac-KKKFN[Pra′]CRD[Azk]IQRMHLRQY[Aad]LL-OH (triazole 6-10) [compound 53] | 38 |  |
| Ac-KKKFN[Pra′]CRD[Azk]IQRMHLRQYEIL-OH (triazole 6-10) [compound 49] | 11 |  |
| Ac-FN[Pra′]CRD[Azk]IQRMHLRQY[Aad]LL-OH (triazole 3-7) [compound 37] | 35 |  |
| Ac-FN[Pra′]CRD[Azk]IQRMHLRQYQLL-OH [compound 27] | 4 |  |
| Ac-FN[Pra′]CRD[Azk]IQRMHLRQ[1Nal]ELL-OH (triazole 3-7) [compound 43] | 54 |  |
| Ac-FNDARDIIQRMHLRQYELL-OH [compound 75] | 5 |  |
| Ac-FN[Pra′]CRD[Azk]IQRMHLRQWELL-OH (triazole 3-7) [compound 30] | 9 |  |
| Ac-FN[Pra′]CRD[Azk]IQRMHLRQWELL-OH [compound 29] | 4 |  |
